In patent US20030091557A1 (Human Genome Sciences, published 2003):
Bridges are numbered along the chain shown (N, C = ends).

These binders were tested against recombinant human ACE-2 (human, UniProt Q9BYF1 18-740, limits assumed) (assay: cell-based or functional assay).
Sequence of recombinant human ACE-2 (Q9BYF1 18-740 limits assumed): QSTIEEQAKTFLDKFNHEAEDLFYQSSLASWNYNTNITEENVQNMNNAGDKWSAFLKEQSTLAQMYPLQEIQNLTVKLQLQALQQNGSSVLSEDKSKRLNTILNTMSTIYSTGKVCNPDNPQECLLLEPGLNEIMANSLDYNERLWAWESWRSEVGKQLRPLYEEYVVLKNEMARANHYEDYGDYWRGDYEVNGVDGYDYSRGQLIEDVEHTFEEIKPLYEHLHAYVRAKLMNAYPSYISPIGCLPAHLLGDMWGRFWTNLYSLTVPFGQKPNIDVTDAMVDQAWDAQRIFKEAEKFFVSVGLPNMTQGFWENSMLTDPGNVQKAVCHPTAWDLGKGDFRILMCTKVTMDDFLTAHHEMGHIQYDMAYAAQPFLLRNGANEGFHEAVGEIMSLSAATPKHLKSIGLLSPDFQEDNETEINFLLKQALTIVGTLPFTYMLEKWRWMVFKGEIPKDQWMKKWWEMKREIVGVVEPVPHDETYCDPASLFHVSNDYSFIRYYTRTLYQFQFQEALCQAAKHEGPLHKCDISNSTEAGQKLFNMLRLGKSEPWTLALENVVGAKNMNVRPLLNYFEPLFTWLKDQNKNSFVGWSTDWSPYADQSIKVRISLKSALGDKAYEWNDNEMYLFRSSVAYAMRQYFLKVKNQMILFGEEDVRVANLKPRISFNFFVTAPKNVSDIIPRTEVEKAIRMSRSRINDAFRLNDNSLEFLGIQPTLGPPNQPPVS

Binder	IC50 µM (ACE-2 cleavage of M-2195, fluorometric)
Ac-GSRIGCRDSRCNWWAPGEGGG-NH2 (disulfide 6-11 (inferred); also: oxidized) [DX-524]	0.6 µM
Ac-GSRGFCRDSSCSFPAPGEGGG-NH2 (disulfide 6-11 (inferred); also: oxidized) [DX-525]	1 µM
Ac-GDRYLCLPQRDKPWKFCNWFDPEGGG-NH2 (disulfide 6-17 (inferred); also: oxidized) [DX-599]	0.14 µM
Ac-GDLHACRPVRGDPWWACTLGDPEGGG-NH2 (disulfide 6-17 (inferred); also: oxidized) [DX-513]	0.09 µM
Ac-GDRLHCKPQRQSPWMKCQHLDPEGGG-NH2 (disulfide 6-17 (inferred)) [DX-512]	0.06 µM
Ac-AGWEVCHWAPMMCKHGGTEGGG-NH2 (disulfide 6-13 (inferred); also: oxidized) [DX-529]	0.4 µM
Ac-GDGFTCSPIRMFPWFRCDLGDPEGGG-NH2 (disulfide 6-17 (inferred)) [DX-601]	0.068 µM
Ac-GDFSPCKALRHSPWWVCPSGDPEGGG-NH2 (disulfide 6-17 (inferred)) [DX-602]	0.12 µM
Ac-AGSDWCGTWNNPCFHQGTEGGG-NH2 (disulfide 6-13 (inferred); also: oxidized) [DX-531]	0.5 µM
Ac-AGQKECKFGYPHCLPWGTEGGG-NH2 (disulfide 6-13 (inferred); also: oxidized) [DX-530]	30 µM
